The values that follow come from article PMC6557901, “Rif1 S-acylation mediates DNA double-strand break repair at the inner nuclear membrane”.

The data set concerns the target T1, Rif1 NTD (100-1322) C466A/C473A (Saccharomyces cerevisiae, UniProt P29539 100-1322, C466A;C473A).
T1 sequence: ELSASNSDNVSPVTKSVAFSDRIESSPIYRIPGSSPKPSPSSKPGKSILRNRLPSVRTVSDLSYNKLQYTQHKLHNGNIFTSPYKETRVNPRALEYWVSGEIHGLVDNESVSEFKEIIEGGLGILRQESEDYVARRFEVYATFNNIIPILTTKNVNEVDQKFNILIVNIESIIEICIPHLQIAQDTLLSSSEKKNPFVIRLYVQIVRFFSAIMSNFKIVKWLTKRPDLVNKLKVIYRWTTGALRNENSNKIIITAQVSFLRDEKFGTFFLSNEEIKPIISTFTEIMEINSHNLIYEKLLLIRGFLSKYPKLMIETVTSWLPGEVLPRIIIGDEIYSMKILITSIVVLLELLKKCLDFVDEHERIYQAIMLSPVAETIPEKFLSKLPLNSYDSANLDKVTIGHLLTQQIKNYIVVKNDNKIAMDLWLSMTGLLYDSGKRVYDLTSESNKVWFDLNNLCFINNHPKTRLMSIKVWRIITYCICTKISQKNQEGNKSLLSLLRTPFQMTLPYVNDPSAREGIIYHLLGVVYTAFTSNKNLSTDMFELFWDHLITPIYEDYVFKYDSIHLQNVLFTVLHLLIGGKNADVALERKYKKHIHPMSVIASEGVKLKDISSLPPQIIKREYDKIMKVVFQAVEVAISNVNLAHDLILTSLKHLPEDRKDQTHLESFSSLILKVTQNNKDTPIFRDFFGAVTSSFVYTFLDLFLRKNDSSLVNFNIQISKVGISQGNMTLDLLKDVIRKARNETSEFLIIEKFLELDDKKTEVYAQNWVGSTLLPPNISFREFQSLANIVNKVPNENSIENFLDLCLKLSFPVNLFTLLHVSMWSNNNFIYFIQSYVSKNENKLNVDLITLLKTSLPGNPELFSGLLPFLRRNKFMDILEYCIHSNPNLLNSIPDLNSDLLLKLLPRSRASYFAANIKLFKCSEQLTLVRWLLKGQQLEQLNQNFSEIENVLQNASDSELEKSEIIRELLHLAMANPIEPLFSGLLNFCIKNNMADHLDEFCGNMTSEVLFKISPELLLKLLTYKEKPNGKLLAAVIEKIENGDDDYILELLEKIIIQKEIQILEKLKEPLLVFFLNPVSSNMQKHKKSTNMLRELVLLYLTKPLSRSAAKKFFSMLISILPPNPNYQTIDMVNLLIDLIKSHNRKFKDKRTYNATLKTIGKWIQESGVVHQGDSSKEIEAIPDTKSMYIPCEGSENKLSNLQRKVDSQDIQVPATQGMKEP
Nature of the data set: EMSA; protein 10-160 nM, DNA 1 nM; apparent affinity similar to wild-type; 20 mM Tris-HCl pH 8.0, 100 mM NaCl, 2.5 mM MgCl2, 10 mM CaCl2, 0.1 mg/ml BSA, 1 mM TCEP, 30 min at 20 °C; 1.2% agarose gel, 0.5x TBE, 4 °C. The conditions noted are these: protein: recombinant; tags: N-terminal Strep(II); label: 5'-32P on EMSA1; blunt. A general note: Mobility shift assays separate free from complexed probe on a gel.

B1: 30 bp dsDNA (EMSA1/EMSA2) (dsDNA)
DNA 1: TAGCAAGGCACTGGTAGAATTCGGCAGCGT
DNA 2: ACGCTGCCGAATTCTACCAGTGCCTTGCTA
B1: the binding result is “binds”.
